From article PMC4789280, “Characterisation of the broad substrate specificity 2-keto acid decarboxylase Aro10p of Saccharomyces kudriavzevii and its implication in aroma development” (Microbial Cell Factories, 2016)

How the values were obtained:
[1] = substrate: O=C(O)C(=O)Cc1ccccc1; test: decarboxylase activity, cell extract of decarboxylase-null yeast, Michaelis-Menten; assay type: biochemical, Saccharomyces kudriavzevii; conditions: cell extract from aerobic ethanol-limited chemostat culture, phenylalanine as nitrogen source
[2] = substrate: O=C(O)C(=O)Cc1ccccc1; test: cells, lysate or membranes; conditions: cell extract from aerobic ethanol-limited chemostat culture, phenylalanine as nitrogen source

Row | Protein | Km [1] | Km [2]
1 | SkAro10p (Saccharomyces kudriavzevii IFO 1802) (protein, full-length ARO10 allele on plasmid pG-SkARO10-kX (pGREG526); expressed in S. cerevisiae CEN.PK 711-7C pdc1 pdc5 pdc6 aro10 thi3 null; cell extract) MTPVTINTFVNQKEPHLVSNELATISFGEYIFRRLLSTGTKSVFGVPGDFNLSLLEYLYAPSVESAGLKWIGTCNELNAAYAADGYSRYSNNIGCLVTTFGVGELSALNGVAGSFAENVKVLHIVGVAKSIDSRSDNFRDRNMHHLVPQLHGSNFKGPNHKVYHDMVKDRVACSVAYLEDIETACDQVDNVIRDIYKYSKPGYIFVPADFADMSVTCENLINVPHISQQDCITYPSQIQLFDILDRITSWMYSSKTPAILGDVLTDRYGVSEILNKLIYATGIWNFSTVMGKSVIDEANPKYMGQYNGKEGLRQVYEHFESCDLVLHFGVDINEINNGHYTFTYKPNAKIIQFHPNYIRFVDTKYGHEQMFEGINFAPVLMELYKGIDVSRLSLQYDSGVTSYTNETMQLEDPTNDQSNNITQVHLQKVMPKFLSPGDVVVCETGSFQFSVRDFAFPTQLKYISQGFFLSIGMALPAALGVGIAMQDFPNAHISDENIGEGYKPRLILFEGDGAAQMTIQELSTILKCHITIDIFIWNNNGYTIERAIMGPTRAYNDVMSWKWTKLLEAFGDFDRKHTNSTVIEYPSKLAMKLEELKSSNTRDGIELVEVKLGVLDFPEQLKCMVDAAALKRNKK | 70 ± 5 µM | 
2 | ScAro10p (Saccharomyces cerevisiae S288C) (protein) MAPVTIEKFVNQEERHLVSNRSATIPFGEYIFKRLLSIDTKSVFGVPGDFNLSLLEYLYSPSVESAGLRWVGTCNELNAAYAADGYSRYSNKIGCLITTYGVGELSALNGIAGSFAENVKVLHIVGVAKSIDSRSSNFSDRNLHHLVPQLHDSNFKGPNHKVYHDMVKDRVACSVAYLEDIETACDQVDNVIRDIYKYSKPGYIFVPADFADMSVTCDNLVNVPRISQQDCIVYPSENQLSDIINKITSWIYSSKTPAILGDVLTDRYGVSNFLNKLICKTGIWNFSTVMGKSVIDESNPTYMGQYNGKEGLKQVYEHFELCDLVLHFGVDINEINNGHYTFTYKPNAKIIQFHPNYIRLVDTRQGNEQMFKGINFAPILKELYKRIDVSKLSLQYDSNVTQYTNETMRLEDPTNGQSSIITQVHLQKTMPKFLNPGDVVVCETGSFQFSVRDFAFPSQLKYISQGFFLSIGMALPAALGVGIAMQDHSNAHINGGNVKEDYKPRLILFEGDGAAQMTIQELSTILKCNIPLEVIIWNNNGYTIERAIMGPTRSYNDVMSWKWTKLFEAFGDFDGKYTNSTLIQCPSKLALKLEELKNSNKRSGIELLEVKLGELDFPEQLKCMVEAAALKRNKK |  | 150 ± 10 µM
